The record followed here is paper doi:10.1101/2024.12.19.629503.

The assay deals with di-nucleosome of X. laevis histone octamers on two Widom 601 sequences (unmodified) (X. laevis). The assay is described as follows: cryo-EM structure.

In turn, “DNMT3A2/3B3 hetero-tetramer (from UniProt Q9UBC3-3 1-770) (complex)” returned a stoichiometry N (hetero-tetramers per di-nucleosome) of 2.
